According to patent publication US20230105457A1, “Immunogenic Compounds For Treatment Of Adrenal Cancer” (ENTEROME S.A., priority 2019, published 2023):
Read-outs that look alike come from different tables or passages of the source.

B1: BIRC5-H (peptide)
peptide: LTLGEFLKL
B2: IL13RA2-L (peptide)
peptide: FLPFGFILPV
notes: also called IL13R2A-L
B3: IL13RA2-B (peptide)
peptide: FLPFGFILV
notes: also called candidate peptide
B4: 1A9V (peptide)
peptide: ALPFGFILV
notes: also called comparative peptide of Eguchi et al. 2006

Legend:
[1] = target: T1, HLA-A*0201 molecule expressed on human tumor cell line T2 (human); assay: T2 cell HLA-A2 stabilisation, FACS; peptide at 1 µM
T1 construct: surface HLA-A2 read with anti-HLA-A2 antibody BB7.2-PE by FACS; also called HLA-A2

[2] = target: T1, HLA-A*0201 molecule expressed on human …; assay: T2 cell HLA-A2 stabilisation, FACS; peptide at 25 µM
[3] = target: T1, HLA-A*0201 molecule expressed on human …; assay: T2 cell HLA-A2 stabilisation, FACS; peptide at 50 µM
[4] = target: T1, HLA-A*0201 molecule expressed on human …; assay: T2 cell HLA-A2 stabilisation, FACS; peptide at 10 µM
[5] = target: T1, HLA-A*0201 molecule expressed on human …; assay: T2 cell HLA-A2 stabilisation, FACS; peptide at 100 µM
[6] = target: T1, HLA-A*0201 molecule expressed on human …; assay: T2 cell HLA-A2 stabilisation, FACS; peptide at 0.1 µM
[7] = target: T1, HLA-A*0201 molecule expressed on human …; assay: T2 cell HLA-A2 stabilisation, FACS; peptide at 100 µM; remark: listed apart in the source
[8] = target: T1, HLA-A*0201 molecule expressed on human …; assay: T2 cell HLA-A2 stabilisation, FACS; peptide at 6.25 µM
[9] = target: T1, HLA-A*0201 molecule expressed on human …; assay: T2 cell HLA-A2 stabilisation, FACS; peptide at 3.125 µM
[10] = target: T1, HLA-A*0201 molecule expressed on human …; assay: T2 cell HLA-A2 stabilisation, FACS; peptide at 1.5625 µM
[11] = target: T1, HLA-A*0201 molecule expressed on human …; assay: T2 cell HLA-A2 stabilisation, FACS; 20% of signal of HIV pol 589-597 at 100 µM
[12] = target: T1, HLA-A*0201 molecule expressed on human …; assay: as above; remark: listed apart in the source
[13] = target: T1, HLA-A*0201 molecule expressed on human …; assay: T2 cell HLA-A2 stabilisation, FACS; ratio of 20% concentration to that of HIV pol 589-597 (lower = stronger)
[14] = target: T1, HLA-A*0201 molecule expressed on human …; assay: as above; remark: listed apart in the source
[15] = target: T1, HLA-A*0201 molecule expressed on human …; assay: as above; remark: listed apart in the source
[16] = target: T1, HLA-A*0201 molecule expressed on human …; assay: as above; remark: listed apart in the source
[17] = target: T1, HLA-A*0201 molecule expressed on human …; assay: T2 cell HLA-A2 stabilisation, FACS; 20% of signal of HIV pol 589-597 at 100 µM; remark: listed apart in the source
[18] = target: T1, HLA-A*0201 molecule expressed on human …; assay: as above; remark: listed apart in the source
[19] = target: T1, HLA-A*0201 molecule expressed on human …; assay: T2 cell HLA-A2 stabilisation, FACS; ratio of 20% concentration to that of HIV pol 589-597 (lower = stronger); remark: listed apart in the source

Binder	mean relative fluorescence intensity [1]	mean relative fluorescence intensity [2]	mean relative fluorescence intensity [3]	mean relative fluorescence intensity [4]	mean relative fluorescence intensity [5]	mean relative fluorescence intensity [6]	mean relative fluorescence intensity [7]	mean relative fluorescence intensity [8]	mean relative fluorescence intensity [9]	mean relative fluorescence intensity [10]	Concentration of peptide that induces 20% of HLA-A2 expression [11] [µM]	Concentration of peptide that induces 20% of HLA-A2 expression [12] [µM]	In vitro binding affinity (relative affinity) [13]	In vitro binding affinity (relative affinity) [14]	In vitro binding affinity (relative affinity) [15]	In vitro binding affinity (relative affinity) [16]	Concentration of peptide that induces 20% of HLA-A2 expression [17] [µM]	Concentration of peptide that induces 20% of HLA-A2 expression [18] [µM]	In vitro binding affinity (relative affinity) [19]
B1	0 relative (HIV peptide = 100)	9.8 relative (HIV peptide = 100)	18.9 relative (HIV peptide = 100)	3.52 relative (HIV peptide = 100)	35.6 relative (HIV peptide = 100)	0 relative (HIV peptide = 100)	20.5 relative (HIV peptide = 100)	10.8 relative (HIV peptide = 100)	1.4 relative (HIV peptide = 100)	1.7 relative (HIV peptide = 100)	53	95.9	16.1	113					
B2													0.3		0.3	0.53			
B3		86.5 relative (HIV peptide = 100)	113 relative (HIV peptide = 100)		128 relative (HIV peptide = 100)			40.8 relative (HIV peptide = 100)	15.7 relative (HIV peptide = 100)	14.8 relative (HIV peptide = 100)	2.9		0.3		0.3	2.48	2.9	1.9	0.49
B4															3.6	27.7	36.5	20.9	3.06
